Test results taken from patent US20200079833A1 (AstraZeneca / MedImmune, published 2020).
Starred links: 1 amine or outer side, 2 acyl side, 3 side chain; linkers in the order of their positions; H or OH if unused. Non-standard residues stand in square brackets, D forms with d. Groups on a side chain read outwards from the residue. Primed or numbered codes have the meaning given here. No end group written: not given here. *: point of attachment. γGlu = O=C(O)[C@H](CCC(=O)[*:2])N[*:1]; Stearoyl = CCCCCCCCCCCCCCCCCC(=O)*; Palmitoyl = CCCCCCCCCCCCCCCC(=O)*; αMeF = C[C@](N)(Cc1ccccc1)C(=O)O; αMeK = C[C@](N)(CCCCN)C(=O)O; αMeS = C[C@](N)(CO)C(=O)O; PEG2′ = not defined here; Aib = CC(C)(N)C(=O)O; Ahx = NCCCCCC(=O)O

T1: glucose-dependent insulinotropic peptide (gastric inhibitory polypeptide) receptor (GIPR) (human, UniProt P48546 22-466)
T1 sequence (looked up): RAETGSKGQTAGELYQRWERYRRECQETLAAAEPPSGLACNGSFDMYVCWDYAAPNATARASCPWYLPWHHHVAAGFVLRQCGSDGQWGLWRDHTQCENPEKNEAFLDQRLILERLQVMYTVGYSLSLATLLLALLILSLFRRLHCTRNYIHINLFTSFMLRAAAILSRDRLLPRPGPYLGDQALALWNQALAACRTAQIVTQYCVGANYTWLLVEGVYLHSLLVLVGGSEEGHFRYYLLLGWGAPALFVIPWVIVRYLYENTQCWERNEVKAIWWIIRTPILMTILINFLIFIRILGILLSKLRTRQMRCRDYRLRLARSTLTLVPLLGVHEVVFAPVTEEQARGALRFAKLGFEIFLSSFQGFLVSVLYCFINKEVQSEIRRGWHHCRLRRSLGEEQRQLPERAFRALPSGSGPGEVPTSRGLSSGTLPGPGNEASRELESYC

T2: glucose-dependent insulinotropic peptide (gastric inhibitory polypeptide) receptor (GIPR), primary cAMP assay (human, UniProt P48546 22-466)
T2 sequence (looked up): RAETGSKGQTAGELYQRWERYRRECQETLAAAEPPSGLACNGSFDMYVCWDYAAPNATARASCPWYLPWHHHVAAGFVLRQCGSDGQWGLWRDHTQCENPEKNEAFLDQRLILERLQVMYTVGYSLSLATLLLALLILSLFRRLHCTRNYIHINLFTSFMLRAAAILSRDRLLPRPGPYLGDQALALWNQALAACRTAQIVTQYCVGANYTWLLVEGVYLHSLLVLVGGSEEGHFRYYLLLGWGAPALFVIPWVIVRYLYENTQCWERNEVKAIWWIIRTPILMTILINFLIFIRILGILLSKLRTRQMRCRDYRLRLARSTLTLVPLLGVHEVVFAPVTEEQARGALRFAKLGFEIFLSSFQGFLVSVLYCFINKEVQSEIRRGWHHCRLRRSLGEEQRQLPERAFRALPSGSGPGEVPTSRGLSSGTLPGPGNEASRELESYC


Tests used:
Experiment in all cases: cell-based or functional assay
glucagon receptor (GCGR) = glucagon receptor (GCGR) (human, UniProt P47871 26-477)
Chain of glucagon receptor (GCGR) (P47871 26-477): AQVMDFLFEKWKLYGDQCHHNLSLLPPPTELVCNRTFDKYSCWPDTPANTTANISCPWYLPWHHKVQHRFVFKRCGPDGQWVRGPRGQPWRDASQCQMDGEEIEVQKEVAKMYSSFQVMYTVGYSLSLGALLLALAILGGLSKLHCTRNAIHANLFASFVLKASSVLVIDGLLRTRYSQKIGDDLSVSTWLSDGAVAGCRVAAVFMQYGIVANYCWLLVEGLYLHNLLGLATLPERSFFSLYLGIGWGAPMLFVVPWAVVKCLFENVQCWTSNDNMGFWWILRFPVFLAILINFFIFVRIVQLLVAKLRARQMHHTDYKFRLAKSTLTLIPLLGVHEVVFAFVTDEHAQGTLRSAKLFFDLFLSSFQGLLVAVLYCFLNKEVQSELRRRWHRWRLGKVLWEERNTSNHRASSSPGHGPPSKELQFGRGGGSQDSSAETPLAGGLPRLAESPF

GLP-1 receptor (GLP-1R) = GLP-1 receptor (GLP-1R) (human, UniProt P43220 24-463)
[1] = target: T1, glucose-dependent insulinotropic …
[2] = target: T2, glucose-dependent insulinotropic …
[3] = target: glucagon receptor (GCGR), primary cAMP assay (human, UniProt P47871 26-477)
Chain of glucagon receptor (GCGR), primary cAMP assay (P47871 26-477): as above

[4] = target: GLP-1 receptor (GLP-1R), primary cAMP assay (human, UniProt P43220 24-463)

Binder | Primary assay EC50 (cAMP), Gluc-R, first run (glucagon receptor (GCGR)) [nM] | Primary assay EC50 (cAMP), Gluc-R, second run (glucagon receptor (GCGR)) [nM] | Primary assay EC50 (cAMP), GLP-1R n1 (GLP-1 receptor (GLP-1R)) [nM] | Primary assay EC50 (cAMP), GLP-1R n2 (GLP-1 receptor (GLP-1R)) [nM] | Primary assay EC50 (cAMP), Mean pM GLP-1R (GLP-1 receptor (GLP-1R)) [pM] | Primary assay EC50 (cAMP), GIP-R, first run [1] [nM] | Primary assay EC50 (cAMP), GIP-R, second run [1] [nM] | Primary assay EC50 (cAMP), n1 [2] [nM] | Primary assay EC50 (cAMP), n2 [2] [nM] | Primary assay EC50 (cAMP), n1 [3] [nM] | Primary assay EC50 (cAMP), n2 [3] [nM] | Primary assay EC50 (cAMP) Mean [4] [nM] | Primary assay EC50 (cAMP), n1 [4] [nM] | Primary assay EC50 (cAMP), n2 [4] [nM]
H[Aib]EGS[αMeF]TSDV[αMeS]S[αMeF]LEGEAA[αMeK]E[αMeF]IA[αMeF]VVK([Ahx-Ahx-Ahx-Stearoyl])GG-NH2 (N-terminus assumed; SMILES CCCCCCCCCCCCCCCCCC(=O)NCCCCCC(=O)NCCCCCC(=O)NCCCCCC(=O)NCCCC[C@H](NC(=O)[C@@H](NC(=O)[C@@H](NC(=O)[C@](C)(Cc1ccccc1)NC(=O)[C@H](C)NC(=O)[C@@H](NC(=O)[C@](C)(Cc1ccccc1)NC(=O)[C@H](CCC(=O)O)NC(=O)[C@](C)(CCCCN)NC(=O)[C@H](C)NC(=O)[C@H](C)NC(=O)[C@H](CCC(=O)O)NC(=O)CNC(=O)[C@H](CCC(=O)O)NC(=O)[C@H](CC(C)C)NC(=O)[C@](C)(Cc1ccccc1)NC(=O)[C@H](CO)NC(=O)[C@](C)(CO)NC(=O)[C@@H](NC(=O)[C@H](CC(=O)O)NC(=O)[C@H](CO)NC(=O)[C@@H](NC(=O)[C@](C)(Cc1ccccc1)NC(=O)[C@H](CO)NC(=O)CNC(=O)[C@H](CCC(=O)O)NC(=O)C(C)(C)NC(=O)[C@@H](N)Cc1c[nH]cn1)[C@@H](C)O)C(C)C)[C@@H](C)CC)C(C)C)C(C)C)C(=O)NCC(=O)NCC(N)=O) [SEQ ID NO 196] | 26 | 26 | 0.19 | 0.063 | 125 | 26 | 26 |  |  |  |  |  |  | 
H[Aib]EGS[αMeF]TSDV[αMeS]S[αMeF]LEGEAA[αMeK]E[αMeF]IA[αMeF]VVK([Ahx-Stearoyl])GG-NH2 (N-terminus assumed; SMILES CCCCCCCCCCCCCCCCCC(=O)NCCCCCC(=O)NCCCC[C@H](NC(=O)[C@@H](NC(=O)[C@@H](NC(=O)[C@](C)(Cc1ccccc1)NC(=O)[C@H](C)NC(=O)[C@@H](NC(=O)[C@](C)(Cc1ccccc1)NC(=O)[C@H](CCC(=O)O)NC(=O)[C@](C)(CCCCN)NC(=O)[C@H](C)NC(=O)[C@H](C)NC(=O)[C@H](CCC(=O)O)NC(=O)CNC(=O)[C@H](CCC(=O)O)NC(=O)[C@H](CC(C)C)NC(=O)[C@](C)(Cc1ccccc1)NC(=O)[C@H](CO)NC(=O)[C@](C)(CO)NC(=O)[C@@H](NC(=O)[C@H](CC(=O)O)NC(=O)[C@H](CO)NC(=O)[C@@H](NC(=O)[C@](C)(Cc1ccccc1)NC(=O)[C@H](CO)NC(=O)CNC(=O)[C@H](CCC(=O)O)NC(=O)C(C)(C)NC(=O)[C@@H](N)Cc1c[nH]cn1)[C@@H](C)O)C(C)C)[C@@H](C)CC)C(C)C)C(C)C)C(=O)NCC(=O)NCC(N)=O) [SEQ ID NO 194] | 28 | 28 | 0.24 | 0.068 | 154 | 28 | 28 |  |  |  |  |  |  | 
H[Aib]EGS[αMeF]TSDV[αMeS]S[αMeF]LEGEAA[αMeK]E[αMeF]IA[αMeF]VVK([Ahx-Ahx-Stearoyl])GG-NH2 (N-terminus assumed; SMILES CCCCCCCCCCCCCCCCCC(=O)NCCCCCC(=O)NCCCCCC(=O)NCCCC[C@H](NC(=O)[C@@H](NC(=O)[C@@H](NC(=O)[C@](C)(Cc1ccccc1)NC(=O)[C@H](C)NC(=O)[C@@H](NC(=O)[C@](C)(Cc1ccccc1)NC(=O)[C@H](CCC(=O)O)NC(=O)[C@](C)(CCCCN)NC(=O)[C@H](C)NC(=O)[C@H](C)NC(=O)[C@H](CCC(=O)O)NC(=O)CNC(=O)[C@H](CCC(=O)O)NC(=O)[C@H](CC(C)C)NC(=O)[C@](C)(Cc1ccccc1)NC(=O)[C@H](CO)NC(=O)[C@](C)(CO)NC(=O)[C@@H](NC(=O)[C@H](CC(=O)O)NC(=O)[C@H](CO)NC(=O)[C@@H](NC(=O)[C@](C)(Cc1ccccc1)NC(=O)[C@H](CO)NC(=O)CNC(=O)[C@H](CCC(=O)O)NC(=O)C(C)(C)NC(=O)[C@@H](N)Cc1c[nH]cn1)[C@@H](C)O)C(C)C)[C@@H](C)CC)C(C)C)C(C)C)C(=O)NCC(=O)NCC(N)=O) [SEQ ID NO 195] | 27 | 27 | 0.17 | 0.046 | 107 | 27 | 27 |  |  |  |  |  |  | 
H[Aib]EGS[αMeF]TSDV[αMeS]S[αMeF]LEGEAA[αMeK]E[αMeF]IA[αMeF]VVK([γGlu-γGlu-γGlu-Stearoyl])GG-NH2 (N-terminus assumed; SMILES CCCCCCCCCCCCCCCCCC(=O)N[C@@H](CCC(=O)N[C@@H](CCC(=O)N[C@@H](CCC(=O)NCCCC[C@H](NC(=O)[C@@H](NC(=O)[C@@H](NC(=O)[C@](C)(Cc1ccccc1)NC(=O)[C@H](C)NC(=O)[C@@H](NC(=O)[C@](C)(Cc1ccccc1)NC(=O)[C@H](CCC(=O)O)NC(=O)[C@](C)(CCCCN)NC(=O)[C@H](C)NC(=O)[C@H](C)NC(=O)[C@H](CCC(=O)O)NC(=O)CNC(=O)[C@H](CCC(=O)O)NC(=O)[C@H](CC(C)C)NC(=O)[C@](C)(Cc1ccccc1)NC(=O)[C@H](CO)NC(=O)[C@](C)(CO)NC(=O)[C@@H](NC(=O)[C@H](CC(=O)O)NC(=O)[C@H](CO)NC(=O)[C@@H](NC(=O)[C@](C)(Cc1ccccc1)NC(=O)[C@H](CO)NC(=O)CNC(=O)[C@H](CCC(=O)O)NC(=O)C(C)(C)NC(=O)[C@@H](N)Cc1c[nH]cn1)[C@@H](C)O)C(C)C)[C@@H](C)CC)C(C)C)C(C)C)C(=O)NCC(=O)NCC(N)=O)C(=O)O)C(=O)O)C(=O)O) [SEQ ID NO 193] | 26 | 26 | 0.33 | 0.095 | 213 | 26 | 26 |  |  |  |  |  |  | 

Other lines, results leading:

Primary assay EC50 (cAMP), Gluc-R, first run (glucagon receptor (GCGR)) [nM] | Primary assay EC50 (cAMP), Gluc-R, second run (glucagon receptor (GCGR)) [nM] | Primary assay EC50 (cAMP), GLP-1R n1 (GLP-1 receptor (GLP-1R)) [nM] | Primary assay EC50 (cAMP), GLP-1R n2 (GLP-1 receptor (GLP-1R)) [nM] | Primary assay EC50 (cAMP), Mean pM GLP-1R (GLP-1 receptor (GLP-1R)) [pM] | Primary assay EC50 (cAMP), GIP-R, first run [1] [nM] | Primary assay EC50 (cAMP), GIP-R, second run [1] [nM] | Primary assay EC50 (cAMP), n1 [2] [nM] | Primary assay EC50 (cAMP), n2 [2] [nM] | Primary assay EC50 (cAMP), n1 [3] [nM] | Primary assay EC50 (cAMP), n2 [3] [nM] | Primary assay EC50 (cAMP) Mean [4] [nM] | Primary assay EC50 (cAMP), n1 [4] [nM] | Primary assay EC50 (cAMP), n2 [4] [nM] | Binder
26 | 26 | 0.041 | 0.015 | 27.9 | 26 | 26 |  |  |  |  |  |  |  | H[Aib]EGS[αMeF]TSDV[αMeS]S[αMeF]LEGEAA[αMeK]E[αMeF]IA[αMeF]VVK([PEG2′-PEG2′-Stearoyl])GG-NH2 [SEQ ID NO 198]
 |  |  |  |  |  |  | 21.4 | 21.4 | 21.4 | 21.4 | 3.85 | 3.58 | 4.11 | H[Aib]EGTFTSDVSK([PEG2′-PEG2′-γGlu-Palmitoyl])YLEGEAAEEFIK([PEG2′-PEG2′-γGlu-Palmitoyl])WVVEGG-NH2 [SEQ ID NO: 242]
25 | 25 | 0.029 | 0.0075 | 18.3 | 25 | 25 |  |  |  |  |  |  |  | H[Aib]EGS[αMeF]TSDV[αMeS]S[αMeF]LEGEAA[αMeK]E[αMeF]IA[αMeF]VVK([PEG2′-PEG2′-PEG2′-Stearoyl])GG-NH2 [SEQ ID NO 199]
 |  |  |  |  |  |  | 21.6 | 21.6 | 21.6 | 21.6 | 12.3 | 7.77 | 16.9 | H[Aib]EGTFTSDVSK([PEG2′-PEG2′-γGlu-Palmitoyl])YLEGEAAEEFIK([PEG2′-PEG2′-γGlu-Palmitoyl])FVVEGG-NH2 [SEQ ID NO: 244]
27 | 27 | 0.12 | 0.034 | 79 | 27 | 27 |  |  |  |  |  |  |  | H[Aib]EGS[αMeF]TSDV[αMeS]S[αMeF]LEGEAA[αMeK]E[αMeF]IA[αMeF]VVK([PEG2′-Stearoyl])GG-NH2 [SEQ ID NO 197]
 |  |  |  |  |  |  | 21.5 | 21.5 | 21.5 | 21.5 | 3.21 | 2.93 | 3.48 | H[Aib]EGTFTSDVSK([PEG2′-PEG2′-γGlu-Palmitoyl])FLEGEAAEEFIK([PEG2′-PEG2′-γGlu-Palmitoyl])WVVEGG-NH2 [SEQ ID NO: 243]
